The values that follow come from the nanobody polyreactivity screen of Harvey et al. (2022).

The series is described as follows: yeast display, Sf9 membrane polyspecificity reagent, FACS + sequencing; frameworks hold sequencing errors. The method, boiled down: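 Using colony PCR, genes from sorted yeast display clones were amplified, then sequenced on MiSeq at 2 × 250 and filtered by CDR length. The clones had been stained with 10% biotinylated, detergent-solubilized Sf9 membrane reagent for 1 hour at 4 °C and sorted by FACS into low and high (top ~1%) gates on anti-HA and streptavidin fluorescence. Polyreactivity labels come from the gate of origin.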
In the case of “QVQLVESGGGLVQAGGSLRLSCAATGSIFWVNGMGWYRQAPGKERELVAAITWSGGSTYYADSVKGRFTISRDNAKNTVYLQMNSLKPEDTAVYYCADYGQYYLWDGYGYWGQGTQVTVSS”, the “polyreactivity (PSR sort gate)” value is given as “low polyreactivity”.
As for “QVQLVESGGGLVQAGGSLRLSCAASGRTFLQYAMGWYRQAPGKERELVATISFSGGSTYADSVKGRFTISRDNAKNTVYLQMNSLKPEDTAVYYCNAGIRYFVVGRSSYDYWGQGTQVTVSS”, the “polyreactivity (PSR sort gate)” value was “low polyreactivity”.
Consider “QVQLVESGGGLVQAGGSLRLSCAASGNTFDIYAMGWYIQAPGKERELVAAISRRGGSTYYAESVKGRFTISRDNAKNTVYLQLNSLKPEDTAVYYCNTVYATRYDYWGQGTQVTVSS”, for which the “polyreactivity (PSR sort gate)” value is “high polyreactivity”.
For the sequence “HLQLVESGGGLVQAGGSLRLSCAASGSIFYYNAMGWYRQAPGKERELVASIRANGGNTYYADSVKGRFTISRDNAKNTVYLQMNSLKPEETAVYYCAKESRYAHLYYYWGQGTQVTVSS”, the “polyreactivity (PSR sort gate)” value is reported as “low polyreactivity”.
On to “QVQLVESGGGLVQAGGSLRLSCASSGRIFLVYAMGWYRQAPGKERELVAAISYSGGRTYYADSVKGRFTISRDNAKNTVYLQMNSLKPEDTAVYYCAAKRITYYGGGRFYYWGQGTQVTVSS”, for which the “polyreactivity (PSR sort gate)” value was “high polyreactivity”.
Regarding “QVQLVESGGGLVQAGGSLRLSCAASGRIFRRNAMGWYRQAPGKEREFVAAISYRGGSTYYADSVKGRFTISRDNAKNTVYLQMNSLKPEDTAVYYCAATGYGSAYNPYDHWGQGTQVTVSS”, the “polyreactivity (PSR sort gate)” value is “high polyreactivity”.
Consider “QVQLVESGGGLVQAGGSLRLSCPASGRTFYRNAMGWYRQAPGKEREFVAVITWSTGTTYYADSVKGRFTISRDNAKNTVYLQMNSPKPEDTAVYYCAADSQPPHELYESIEHESWGQGTQVTVSS”, for which the “polyreactivity (PSR sort gate)” value is on record as “low polyreactivity”.
As to “QVQLVESGGGLVQAGGSLRLSCAASGIIFTYYAMGSYRQAPGKERELVAAISSRGDSTYYADSVKGRCTISRDNAKNTVSLQLNSLKTEDTAVYYCNRYLSRPLRAMYYWGIGTQVTVSS”, the “polyreactivity (PSR sort gate)” value is listed as “high polyreactivity”.
In the case of “QVQRVEEGRGLVQAGGTLRISCAASGSIFNQYAMGWYRHAPGQERELVAAITASGGSTYYAVSVKGRFTISRDNAKKTVYLQMNCLKPEDPAVYYCAKVELRDSAELGSDEYDYWGQGTQVTVSS”, the “polyreactivity (PSR sort gate)” value is given as “low polyreactivity”.
On to “QVQLVESGGGLVQAGGSLRFSCAASGSTFYAYAMGWYRQAAGQERELVAAIDSGGSTYYADSVKGRFTISRDNAKNTLYLQKNSLNPEDTAVYYCAVRHRYTRAYWGRDYWGQGTQVTVSS”, for which the “polyreactivity (PSR sort gate)” value is listed as “low polyreactivity”.
Turning to “QVQLVESGGGLVQAGGSLRLSCAASGLTFRYYAMGWYRQEPGKERELVATITRAGRTNYADSVKGRFTISRDNAKNTVYLQMNSLKPEDTAVYYCNAKQSGKYPRVVGYDYWGQGTQVTVSS”, the “polyreactivity (PSR sort gate)” value is “high polyreactivity”.
As for “QVQLVESGGGLVQAGGSLRLSCAASGFIIKSYAMGWYRQAPGKERELVAAISYTGSITYYADSVKGRFTISRDNAKNTVYLQMNSLKPEDTAVYYCAVGRYADQHDYWGQGTQVTVSS”, the “polyreactivity (PSR sort gate)” value was “high polyreactivity”.
Under “QVQLVESGGGLVQAGGSLRLSCAASGSTFEYYAMGWDRQAPGKERELVAAISITGGSSYYADSVKGRFTISRDNAKNTVYLQMNSLKPEDTAVCYCAASVPLARRLGYPWRRAGYNYWGQGTQVTVSS” stands “high polyreactivity”.
On to “QVQLVESGGGLVQAGGSLRLSCAASGSIFYNYGMGWYRQAAGKEGELVAAIRASGDSTYYADSVKGRFTISRDNAKNTLYLQINSQKPEDTAVYYCAARPNQSYNGLYYYWGQGTQVTVSS”, for which the “polyreactivity (PSR sort gate)” value is on record as “low polyreactivity”.
To “QVQLVESGGGLVQAGGSLRLSCAASGSTFSPYAMGWYRQAPGKERELVAAIRRGGSTNYADSVKGRFTISRDNAKNTVYLQMNSLKPEDTAVYYCAATKRRFVKFDYWGQGTQVTVSS” belongs “low polyreactivity”; to “HVQLVESGGGLVQAGGSLRLSCAASGYIFYVYAMGWYRQAPGKERELVAAINSGDITSYADSVKGRFTISRDNAKNTVYFQMNSLKPEDTAVYYCATVLILIYDYWGQGTQVTVSS”, “low polyreactivity”.
As for “QVQLVESGGGLVQAGGSLRLSCAASGFIIKGNVMGWYRQAPGKERELVAAITRRGSTYYADSVKGRFTISRDNAKNTVYLQMNSLKPEDTAVYYCAARPWKAIEKVDGSGGGDYWGQGTQVTVSS”, the “polyreactivity (PSR sort gate)” value was “low polyreactivity”.
To “QVQLVESGGGLVQAGGSLRLSCAASGRIFVPYAMGWYRQAPGKERELVAAISWRGGSTNYADSVKGRFTISRDNAKNTVYLQMNSLKPEDTAVYYCAAVPVRYRYSYGYYYWGQGTQVTVSS” belongs “high polyreactivity”; to “QVQLVESGGGLVQEGGSLRLICAASGRTLYHYVMGWYSQAPGKERELVAAISSGGSTYYADSVKGRFTISRDNAKNTVYLQMNSLKPEDTAVYFCAAGRRGDWGQGTQVTVSS”, “high polyreactivity”.
To “QVQLVESGGGLVQAGGSLRLSCAASGSIFSYYAMGWYRQAPGKERELVAGITWSGGRTYYADSVKGRFTISRDNAKNTVYLQMNSLKPEDTAVYYCAAVQLFSRRSRYDYWGQGTQVTVSS” belongs “high polyreactivity”; to “QVQLVESGGGLVQAGGSLRLSCAASGLIFYGNAMGWYRQAPVKERELVAAISRRGGRTYYADSVKGRFTISRDNAKNTVYLQMNSLKPEDTAVYYCAAGVPKNGQAGYDYWGQGTQVTVSS”, “high polyreactivity”; to “QVQLQEIGGCLVQAGDSHRLSCAASGNIFPFTDMGWNRQAQGKERELVAAINAGSTTYYADSVKGRFTISRDNAKITVYLQLISLKPEDTAVYYCAVYYLGSGTFCYWGQGPQVTVSS”, “high polyreactivity”.
To “QVQLVESGGGLVQAGGSLRLSCAASGRTFDHNAMGWYRQAPGKERELVAAITWSGGITDYADSVKRPFTISRDNAKNTVYLQMNSLKPEDTAVCGQGTQVTVSS” belongs “low polyreactivity”; to “QVQLQESGGGLVQAGGSLRLSCAASGSIFDGFNMGWNRQAPGKEREFVAAISYGASTYYADSVKGRFTVSRDNAKNCVYLQMNSLKPEDSAVYYCAVYDELYQVLVYWGRGTQVTVSS”, “low polyreactivity”.
“QVQLVESGGGLVQAGGSLRLSCAASGRTFPGNAMGWYRQATGKERELVATISSGGTTNYADSVKGRFTISRDNAKNTVYLQMNSLKPEDTAVYYCATDTYHHKADYEYWGQGTQVTVSS”: the “polyreactivity (PSR sort gate)” value was “low polyreactivity”.
In the case of “QVQLVESGGGLVQAGGSLRLSCAASGITFDKNTMGWYRQEPGKVRELVAAISARGGSTYYADSVKGRFTISRDNSKNTVYLQMNSLKPEDTAVYYCAARSGYGPYRMDYWGQGTQVTVSS”, the “polyreactivity (PSR sort gate)” value is given as “high polyreactivity”.
Under “QVQLVESGGGLVQAGGSLRLSCAASGSTFKSYTMGWYRQAPGKERELVAAISGSGGRTYYADSVKGRFTISRDNAKNTVYLQMNSLKPEDTAVYYCAATGPYGFYWGQGTQVTVSS” stands “high polyreactivity”.
With “QVQLVESGGGLVQAGGSLRLSCAASGRTFVNYTMGWDRQAPGKERELVAAIRYRDGSTYYADSVKGRFTISRDNAKNTVYLQMNSLKPEDTAVYYCNTRITQVGDYIYDYWGQGTQVTVSS”, the “polyreactivity (PSR sort gate)” value is recorded as “low polyreactivity”.
With “QVQLVESGGGLVQAGGSLSLSCAASGSTSVLNAMGWYRHAPGKERELVAALTSGVDSTYYADSVKGRFTISRDNAKNTVYLQMNSVKREDTAVYYCATVVDALDNSYKRVYLFDYWGQGTQVTVSS”, the “polyreactivity (PSR sort gate)” value was “low polyreactivity”.
Turning to “QVQLVESGGGLVQAGGSLRLSCAASGSILIWNTMGWDRQAPGKDRELVAAISSGGSTYYADSVKGRFTISRDNAKNTVYLQMNSLKPEDTAVYYCNVDLPRVLTDDSWGQGTHVTVSS”, the “polyreactivity (PSR sort gate)” value is reported as “low polyreactivity”.
For the sequence “QVQLVESGGGLVQAGGSLRLSCAASGRIFGYNAMGWYRQAPGKEREFVAAITYRGGSTYYADSVKGRFTISRDNAKTTVYLEMNSLKPEDTAVYYCASRVTQYPKYWGDYWGQGTQVTVSS”, the “polyreactivity (PSR sort gate)” value was “high polyreactivity”.
Regarding “QVQLVESGGGLVQAGGSLRLSFAASGSTFVYNAMGWYRPAPGKERELVAAITVIGGRTYYADSVKGRFTISRDNAKNTVYLQMNSLKPEDTAVYYCNADATESIGYYDEYEYWGQGTQVTVSS”, the “polyreactivity (PSR sort gate)” value is reported as “low polyreactivity”.
Consider “QVQLVESGGGLVQAGGSLRLSCAASGRIFFTKAMGWYRQAPGKERELVAAISKSGARTYYADSVKGRFTISRDNAKNTVYLQMNSLKPEDTAVYYCAADVSVSGYYYWGQGTQVTVSS”, for which the “polyreactivity (PSR sort gate)” value is given as “high polyreactivity”.
“QVQLVESGGGLVQAGGSLRLSCAASGFTFDYYAMGWYRQAPGKERELVAAISVSDSSTYYADSVKGRFTISRDNAKNTGDLQMNSLKPEDTAVYYCAAEYYVGFTYRYEYWGQGTQVTVSS”: the “polyreactivity (PSR sort gate)” value is on record as “low polyreactivity”.
On to “QVQLVESGGGLVQAGGSLRLTCAASGRTFNPYAMGWYRQAPGKERELVARIRGTGVSTYYADSVKGRFTISRDYAKNTVYLQMNSLKPEDTDVYYINAVATPVSDRWSYLSHGWYYYWGHGTQVTVSS”, for which the “polyreactivity (PSR sort gate)” value was “high polyreactivity”.
As for “QVQLVESGGGLVQAGGSLRLSCAASGYTFGKYAMGWYRQAPGKEREWVAGISSRGGSTYYADSVKGRFTISRDNAKNTVYLQMNSLKPEDTAVYYCAAVAYTGGPRKLGFNYWGQGTQVTVSS”, the “polyreactivity (PSR sort gate)” value is reported as “high polyreactivity”.
With “HVQLVESGGGLVHAGGSLRLRCAASGFTFTTYAMGWYRQAPWKEMELVARISRRSGSTYYADSVKGRFTLSRDNAKNTVYLQMNSLKPDDTAVYYCNADVDRSTTIFDYWGQGTQVTVSS”, the “polyreactivity (PSR sort gate)” value is on record as “high polyreactivity”.
Under “QVQLEESCGGLVQAGGSLRLSCAAYGRIFGNYAMGWYRQATGKETELVAAITRGSTYYADSVKGRFTISRDNSKNTVYLQMNSLKPEDTAFYYCNARPRVPGVLYLYDYWGQGTQVTVSS” stands “high polyreactivity”; under “QVQLVESGGGLVQAGGSLRLSCAASGIIFDDNAMGWYRQAPGKERELVAAINRDGSTYYADSVKGRFTISRDNAKNTVYLQLNSLKPEDTAVYYWAADFYGPRSAVYFLRYSTRYYWGQGTQVTVSS”, “low polyreactivity”.
In the case of “QVQLVESGGGLVQAGGSLRLSCAASGLIFPRYAMGWYRQAPGKERELVAAITSRAGSTYYADSVKGRFTISRDNAKNTVYLQMNSLKPEDTAVYYCAAVSDGWDGDMYYWGQVTQVTVSS”, the “polyreactivity (PSR sort gate)” value is reported as “low polyreactivity”.
On to “QVQLVESGGGLVQAGGSLRLSCAASGRTFYHNAMGWYRPAPGKEWELVASIRWSGGSTYADSVKGRFTISRDNAKNTVYLQMNSLKPEDTAGYYCAKVGKSLYPVDYYSWGQGTQVTVSS”, for which the “polyreactivity (PSR sort gate)” value was “high polyreactivity”.
